{"source": "patent US20100150834A1", "about": "(BURNHAM INSTITUTE, published 2010)", "binders": {"B1": {"name": "biotinylated TNYLFSPNGPIA peptide (SEQ ID NO:24) (peptide)", "peptide": "TNYLFSPNGPIA", "modifications": "also: biotin, position not given here", "notes": "Footnote g: the ~50 µM value was obtained with the biotinylated peptide"}, "B2": {"name": "EWLSPNLAPSVR peptide (SEQ ID NO:1) (peptide)", "peptide": "EWLSPNLAPSVR", "notes": "Panned on EphB1; Footnote e: biotinylated and non-biotinylated peptides gave the same IC50"}, "B3": {"name": "SNEWIQPRLPQH peptide (SEQ ID NO:18) (peptide)", "peptide": "SNEWIQPRLPQH", "notes": "Panned on EphB2; Footnote e: biotinylated and non-biotinylated peptides gave the same IC50"}}, "key": {"murine EphB4 ectodomain": {"target": "T1, murine EphB4 ectodomain (murine, UniProt P54761 16-539)", "T1 construct": "extracellular domain; Coated on wells; also called immobilized EphB4 receptor ectodomain", "T1 sequence (looked up)": "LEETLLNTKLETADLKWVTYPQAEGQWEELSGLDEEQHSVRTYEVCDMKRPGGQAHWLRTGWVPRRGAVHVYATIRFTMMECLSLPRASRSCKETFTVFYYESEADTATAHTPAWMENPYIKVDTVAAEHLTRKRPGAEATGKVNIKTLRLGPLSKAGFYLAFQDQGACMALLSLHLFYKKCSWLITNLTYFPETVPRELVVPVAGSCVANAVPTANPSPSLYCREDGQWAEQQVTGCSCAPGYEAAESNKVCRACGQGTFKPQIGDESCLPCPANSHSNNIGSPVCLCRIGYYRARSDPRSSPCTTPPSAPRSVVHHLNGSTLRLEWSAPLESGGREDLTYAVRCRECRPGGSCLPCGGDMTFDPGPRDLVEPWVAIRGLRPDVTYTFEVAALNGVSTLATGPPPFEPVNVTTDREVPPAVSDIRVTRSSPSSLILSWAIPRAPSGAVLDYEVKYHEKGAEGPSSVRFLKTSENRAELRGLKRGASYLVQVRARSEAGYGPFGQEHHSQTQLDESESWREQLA", "assay": "inhibition of murine ephrin-B2 AP binding to immobilised murine EphB4 ectodomain"}, "[1]": {"target": "T2, murine EphB4-Alkaline Phosphatase (murine, UniProt P54761 16-539)", "T2 construct": "also called EphB4-AP; EphB4 AP; not shown: alkaline phosphatase", "T2 sequence (looked up)": "T1 sequence (looked up)", "assay": "competition ELISA: murine EphB4-AP binding to immobilised murine ephrin-B2-Fc"}, "[2]": {"target": "EphB1 (receptor of Table 1)", "assay": "EphB receptor specificity panel (% binding)"}, "[3]": {"target": "EphB2 (receptor of Table 1)", "assay": "EphB receptor specificity panel (% binding)"}, "[4]": {"target": "EphB3 (receptor of Table 1)", "assay": "EphB receptor specificity panel (% binding)"}, "[5]": {"target": "T3, EphB4 (receptor of Table 1) (Mus musculus (Mouse), UniProt P54761 16-539)", "T3 sequence": "T1 sequence (looked up)", "assay": "EphB receptor specificity panel (% binding)"}, "[6]": {"target": "EphB6 (receptor of Table 1)", "assay": "EphB receptor specificity panel (% binding)"}, "[7]": {"target": "T3, EphB4 (receptor of Table 1)", "assay": "inhibition of ephrin-B2 AP binding to EphB4 (panning receptor); non-biotinylated peptide"}, "[8]": {"target": "EphB1 (receptor of Table 1)", "assay": "inhibition of ephrin-B2 AP binding to EphB1 (panning receptor)"}, "[9]": {"target": "T3, EphB4 (receptor of Table 1)", "assay": "inhibition of ephrin-B2 AP binding to EphB4 (panning receptor); biotinylated peptide"}, "[10]": {"target": "EphB1 (receptor of Table 1)", "assay": "inhibition of ephrin-B2 AP binding to EphB1 (panning receptor); biotinylated and non-biotinylated peptide gave the same result"}, "[11]": {"target": "T3, EphB4 (receptor of Table 1)", "assay": "inhibition of ephrin-B2 AP binding to EphB4 (panning receptor); limited by solubility"}, "[12]": {"target": "EphB2 (receptor of Table 1)", "assay": "inhibition of ephrin-B2 AP binding to EphB2 (panning receptor); biotinylated and non-biotinylated peptide gave the same result"}}, "note": "No end group written: not given here."}
{"binder": "TNYLFSPNGPIARAW (Synthetic, not biotinylated)", "note": "[TNYL-RAW peptide TNYLFSPNGPIARAW (SEQ ID NO:39)]", "values": [{"measurement": "IC50", "setting": "murine EphB4 ectodomain", "value": "~0.04", "unit": "µM"}, {"measurement": "IC50", "setting": "[1]", "value": 0.016, "unit": "µM"}]}
{"binder": "TNYLFSPNGPIA (Panned on EphB4; non-biotinylated form)", "note": "[TNYLFSPNGPIA peptide (SEQ ID NO:24)]", "values": [{"measurement": "% Binding", "setting": "[2]", "value": 5, "unit": "%"}, {"measurement": "% Binding", "setting": "[3]", "value": 3, "unit": "%"}, {"measurement": "% Binding", "setting": "[4]", "value": 3, "unit": "%"}, {"measurement": "% Binding", "setting": "[5]", "value": 100, "unit": "%"}, {"measurement": "% Binding", "setting": "[6]", "value": 7, "unit": "%"}, {"measurement": "IC50", "setting": "[7]", "value": 150, "unit": "µM"}]}
{"binder": "AHTFPYPHPKPH (Panned on EphB1)", "note": "[AHTFPYPHPKPH peptide (SEQ ID NO:3)]", "values": [{"measurement": "% Binding", "setting": "[2]", "value": 100, "unit": "%"}, {"measurement": "% Binding", "setting": "[3]", "value": 4, "unit": "%"}, {"measurement": "% Binding", "setting": "[4]", "value": 8, "unit": "%"}, {"measurement": "% Binding", "setting": "[5]", "value": 1, "unit": "%"}, {"measurement": "% Binding", "setting": "[6]", "value": 0, "unit": "%"}, {"measurement": "IC50", "setting": "[8]", "value": "~150", "unit": "µM"}]}
{"binder": "B1", "values": [{"measurement": "IC50", "setting": "[9]", "value": "~50", "unit": "µM"}]}
{"binder": "B2", "values": [{"measurement": "% Binding", "setting": "[2]", "value": 100, "unit": "%"}, {"measurement": "% Binding", "setting": "[3]", "value": 2, "unit": "%"}, {"measurement": "% Binding", "setting": "[4]", "value": 1, "unit": "%"}, {"measurement": "% Binding", "setting": "[5]", "value": 1, "unit": "%"}, {"measurement": "% Binding", "setting": "[6]", "value": 0, "unit": "%"}, {"measurement": "IC50", "setting": "[10]", "value": "~10", "unit": "µM"}]}
{"binder": "TYFDFQAWSIRA (Panned on EphB4)", "note": "[TYFDFQAWSIRA peptide (SEQ ID NO:22)]", "values": [{"measurement": "% Binding", "setting": "[2]", "value": 10, "unit": "%"}, {"measurement": "% Binding", "setting": "[3]", "value": 21, "unit": "%"}, {"measurement": "% Binding", "setting": "[4]", "value": 18, "unit": "%"}, {"measurement": "% Binding", "setting": "[5]", "value": 100, "unit": "%"}, {"measurement": "% Binding", "setting": "[6]", "value": 30, "unit": "%"}, {"measurement": "IC50", "setting": "[11]", "value": "> 50", "unit": "µM"}]}
{"binder": "B3", "values": [{"measurement": "IC50", "setting": "[12]", "value": "~15", "unit": "µM"}]}
